# Reference: the domain aggregation screens of Martell et al. (2025)
# Assay: soluble fraction after stress (log2 fold change); higher = more stays soluble; pooled small domains, quantitative proteomics
# Details: stress: 50 degC
# Procedure, shortened: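 The stress applied to every library was 50°C. These custom libraries of small protein domains were pooled and measured at high throughput with quantitative proteomics as the read-out. Aggregation propensity is expressed as the base-two logarithm of the fold change in how much of each protein remains soluble. The higher the value, the more of that protein stays in solution.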
row,Sequence,soluble fraction (log2)
1,HMDKEVLYVTVNDKKVKLDGKNHIFIDIFNYIDFDIKKPNGSIVLKLNGKNAGYMDEIKDGDKIEIYWDK,0.0969
2,HMPVSDLQSALRNTLSKGDATDPAFRQRVYRAAMDALERATGSESDPQRRSEQKQRLIAVIRDMEASYRR,0.277
3,HMVQQAVNMAKPGKLFTGPSPTSKALRDLDAGAMLYPTGEKQGPFWKVQDELGNEGWVAMGLLQLA,0.175
4,HMPIMDSDDKYEALGIPQEWIAVVKKAGYQTVEALKAVENPNKLHQELSVMNKKEKLGLAGLTPEMVKAWL,0.342
5,HMKRITKKELKQAIVDVFADKPGQSFNYKQLATIIGIKDDPTRRMITDILYELVQEERIVELYRGKFKMEM,-0.66
6,HMNLMQIHVARPPNQLGVFSQEEVAAGLQSGRFLPTDQAWRDGMSAWTPLSQWAEFSSVVAAV,0.083
7,HMAAVSSHAVKQRIRSLIQAEDPASPLSDEALRLALSALGVEVSRRAVAKYRTSMDIPASSQRKK,-0.252
8,HMGRTKEEIFNILKERIVTLQYEPGKILNEIELSEEFEVSRTPIRTVFQQLEAVKLVSIVPRYGVQVA,-1.27
9,HMNIYIEFGRRLAFIRQNSKLSQSQIAQKLNIAQSTYAGYEKGVRKIPLEIIVQLSKILNISPTILILG,-3.91
10,HMLPPLGDQELELLRFITESAPITVREAAESYGKDRGLARTTVLTMMERLRAKGYLTRSESGAANEYSP,-0.155
11,HMQMSDTAAIGKIVDEVFAENPAALEDYAKGKTNVVDWLTGQVMKKSRGQANPGIASELVQKRLADF,0.122
12,HMREIDIWVAEDADSQRIDKYLSMVVEDLSRSRIASLIEGGSILVNGEVIRAKYKVKPADHITAAFEDEM,-0.72
13,HMGKIFSELTPREIEVVRLIADGLSNQQIAEELFLSNGTVRNHISTILEKTGLEHRTQIAVMWLR,-0.146
14,HMSKSENLYSAARELIPGGVNSPVRAFTGVGGTPLFIEKADGAYLYDVDGKAYIDYVGSWGPMVLGHNHP,0.0101
15,HMQEQIVQGIVKYFDAEKQFGFIAGDDGVDRFFNAKSIQGNAVKTGDRVRFLAISHIRGPRALKISA,-0.852
16,HMSYFNEYEVGDTIRVVNGPLADQISTITAIDKEKGLVNISTVFFGRENNVQVSINDIEKYN,0.0466
17,HMVFTEEERAEYREKMLDAGFDLLKQYGMTHMSVAKITEAAGIGVSTFYNFFSSKEEYVYEVLQYRRRK,-1.25
18,HMDGEITLYKVVGYIKASDFDDKKNGFVIADDYITKRQAEDTMYEWKRKKTYPYLEIKEYKGKDPYK,0.295
19,HMDTGPISGQVEADRVEVHGHLDGKISAQNVVVGQTGVVKGDIEFGENLRTEEGADIEGYIK,-0.149
20,HMGIPVSIGQLDFNQARGNLALQVRASDFAALEQLRQRLGQTGESVQLGSASRDGDAVSARVVIGGQ,-0.015
21,HMLSGNLTADAHVHRGLQALSDGRNEDALVDFTKATEVQADFAEAWNKRATVNYLLGRYDAAVLDIQKTLE,0.19
22,HMDLMSTNEKLLYTMRYLISKSLDGAITEEEIRRLDRLIIENSQARAYYVEYLQIHTHLRKLMQQNPELK,-1.97
23,HMENTELIELRKKRNLSQSQLAELLDLTRNQIANYESGRRIPDQETKQIIAGFFEMPAEEIFAG,0.0435
24,HMSAATGIINTDNVNIRSGPATTYDAVGRLNQGSSVEILSSRNDWYQIQANSLKGWVRNDLLNVQK,0.0404
25,HMEYREFEAMTIRAIATLPPTQGHVIMLSRFEGLDNKEIALRLNLSLQTVKNTLTQGLKELKNKMRKLP,-1.8

row,Sequence,soluble fraction (log2)
1,HMETALYVEDLDRAVRFYESVMGLNTMSRGVRLVALDAGEGTVLLLFLRGATTSGASFEGGWIPPH,-0.0244
2,HMSYQNKLNYLINAFGGADNFQKLLGVGPSAISNYKSRKHLPLNQAKRLSKIAPQFGFSLDPHSLQIST,-0.377
3,HMWNGIVDAGKARQHLMNLSQLGVGRRAVAAASDVAETVLMDIRSGTKTRIRARTERQILAVTPEMA,-2.23
4,HMPTLTPFDVARIENAINPRLNLETAAKLKPWIAAGYTAQETADGTGFSPDTVKKYAAIFRK,0.103
5,HMASEKSEQLYQQMKLDIAGMPPDTRLPSIRALMRSYSVSQLLIDRTLGRLREEGALRKRFDGLYTYL,-2.06
6,HMNRTEYMAALRRALSVLPEEERASALRYYEEYFDDAGPENEEKVIADLGAPEKVAGQILADYRE,0.00316
7,HMSKYERVYTGSEINVNHLKSQLEDAGISSVVRNDHESAIRAGFGSDYDRGVLLFVEKDNLLRAKHIIEKT,0.0318
8,HMTNYREILRLRSLGLNHSRIAESMGISRPTVIAALQRAQTQELNWQAAESLSDIDLAQRLNP,-0.395
9,HMTSKTLSADGGENTRLDKFLSNHLPEISRTKIQKMINDGLVYVNQNYAKASLVLDGTELISYTIPD,0.0679
10,HMHDLTERQREILQTLASGKMALREILSILSQPPSLRTLRDELYHLKRIGLVDTMGYGRGATWFLTQ,-0.103
11,HMEQQVDYTQFIQDVRQGQIREVDVDRNGVINGIKRSGENFVTVIPGGYDRDLINDLVKQGVNATGEL,0.107
12,HMDDATDVPYQEFRTQVTSGQVEIAQFNNNTGKISFQSTSGEKFETSGPLELSSDDERLFLENIEDFKFFT,-0.0161
13,HMIVVMAADSSREDLDLVQGRIEARGLRAQISQGVERIVIGVLGSLPPDLKDEMELLPGVREVLVIS,-0.405
14,HMKQETLNEIGTKIRKLRESKNLSIQEFADKLEMEYNNVIRIEKGRTNFTIGTLVKIANSLEVNLKDI,-0.78
15,HMSIQQEATGNRIRELLLNNGYTVKDIQEVMGFENPQAVYKWLSGKSLPNLDNLLILSKVLHTSIEDILV,-0.699
16,HMVEDPADNQKAADAVIKKISEIGEVTESSENLIKEARASYDALTDNQKELVTNYDVLVQAEAQLENIKD,-0.0306
17,HMNKKETRLNNFIHFLKIRNSITVKEMANHLNVSEMTVRRDIKELTADHTINFENGKIMFNPQSSL,-1.06
18,HMLSVNREQVEQSLKQEWGFDYDKNLRAAQRAIDVYGDDDLKLLLNGPTGNDPAIVKLFARLGGEVTEE,-0.00909
19,HMRESLSEAERHPRYLEGEDVVRMFLLMGDLSRVEAEVIALQWNAQEADRVGLPQDAKVFRTRAR,-0.511
20,HMTPDVHRGDTITVSLRAGAIRVRVPAKALEEGAAGGEIRVVNLTGGREYRVRVTGPGTAEAIL,0.0275
21,HMSKNVTMPNLVGYSMRQAKAELLSRGLHLGKLIYVNDIATNNVISQLYRNAEIEPGVKIESESYVDLVVG,-1.45
22,HMQKTPFEIMTIYKDQILEMLGKDLTATEISIVLKKKGEKVHPREIRKFQLQHYEEVQDMRKKWRE,-1.16
23,HMSGRIWTDNYGRTIEADVIKVNINRTVLLEFTDKKTKTVSFDTFISKDIQYLEYLLTRRNRGKL,-3.9
24,HMGKDLLGYEVFAESGDLVGILKDVMWLPHSDVYVITKGGKEFLIPVIPEVVKGINHEQGVIVISPMEGLL,-0.0165
25,HMARGLRPVPSVFGLDVRQATRTLYAAGFQVSIARGSDVRTRPAAGTLLRVGSTVQLEMPRMESA,-1.54

row,Sequence,soluble fraction (log2)
1,HMLVNNSTIETVIDFANVKFGMELTKDQVSEQLRNLSFSQTLKLINSMKADDNDAFSEIIDL,-0.672
2,HMQKMPEMQILPNGKVKLPDFSGINMRKAAELLQYGKLRLQPYGSGTAYQQKPAAGTEVDEGTVVEIWF,-0.218
3,HMLNMSVYDKQLLRAVENNPFISQRELARELHWNVDRVKYYMKKWKDKGGLRHVGSSHKGYWEVLVRIEEK,-0.886
4,HMNVDSIPGKSGIVTQGIDNLKAMGRVTVNGMEWTARSKDGSLIEEGKVVRVYGVEGVKLIVEED,-0.0306
5,HMSPQIDYFDDEELDVYRQIAPEAYTDEQIEVFRDILYTLRPEEVEEWLISLEKREINLPLILRQEAIELI,0.369
6,HMKMSVKNEIISLLEKNRDTSISGQVIADSLNVTRAAVWKAIKVLKEEGYNIDGTPNKGYILLGNN,-0.368
7,HMSLIDLLQLNRKSKKLTLMNLVEMTGLSYGKVYRIFNGGIDKPTPDSLKLLAKALQLDYSYLFHKAGYL,-0.161
8,HMKKDNLKKIKSIDEDIENELFKLGIYHFEQISIWSSKNAEWIENFLNLPNYVRANQWVEQAKILK,-1.47
9,HMDHFFSKYDSIVNHTVQKKETLFGISKKYGLTINEVIKFNPGIQIDKLKRRSVLIIPLMKKN,-0.917
10,HMDFRQALNTSADSDANKVALLESIVKGKYVSSTVNLLRRVITLRRGRSIDATLAAYSHYVSIR,0.313
11,HMGANSAYMAMRDRIQQRLLAELSPGVTRSDTAEVRRVVERIFNETTAELGLPLSRLERNDIFDLVLADIL,-0.792
12,HMEDVDTAALEKVIATAKGLNKNDYTATTWTTMQAALTNAEKALEAKKSQTSVDEAAKTLQAAIDGLKKAS,0.215
13,HMTQEFIVPKVTGYTVEDAMNLSGVKDVFEITVDSTEKSDQPAGIILFQDPKDGSSRKSDLVIHVVVSAGS,-0.137
14,HMKVSVDLSMFEDDQTADRNAAVAWVVDELGAGGVDRTILMQLQSTGWSAEQSRAILDLASAGR,-0.208
15,HMATTTEPTSPPAATASLEAKINWLFLIFRNKKTVTASEQKFHAEDASTVVGKETLTDDGTTMTKGETAAG,0.0862
16,HMNNIPFIITDERLNVIQSHLVPREVLDHPDRLRRQIDRFTEENQPKTVNYWWGPEHRHIIFYGKSK,0.445
17,HMLPDPIYEAFMMASDLGIVVRNGPQYAYPDKETGEVLYKALGREKFLQLMKDNDGLLTSIETEIRSM,-1.18
18,HMNAVITTQKAKQIALAHAGLSEADVNYVKAELENDDGVQVYDIEFYSKNIEYDYDINAVTGEIMSFDHDI,-0.47
19,HMTNLTPKQQQIYQFIRASTQANGYPPTLREIGQQVGVRSPSTVKYHLDNLRTLGLLHWDGGKTRSITLP,-0.372
20,HMLEQSYYEKTDEIIELHGAKASSLIPVMQDVQAEYRYLPGELLSYIADKLGIPLAKAYSVATFYENFS,-0.358
21,HMEQAMIVILKENPDRRQLEFLTGWLQKQQIGIHISEGAHQTVLGLVGDATRLDIDMLKQMEIVEDVKRVQ,-0.0829
22,HMAAKADAVKKAIAAIGKVDASEDSKAKVEAARKAYAALTEDQKKLVEASQLKLLTEAEAAYQQAVEESKK,0.0525
23,HMRDQQHNIYLLEKAKRLYEEFLGDNRHIIAAEMARFEAVLETQDAIIIQRAQQQFSEFLNRFDG,-1.63
24,HMPYSAAVTFLDDAKQPMVNYNYRLIAENGIEVSGITDEFGKTQPIQTDQREKVDLYIADLPN,0.495
25,HMSSVVVARTWTDTTGDFKVEAELLGVEGGLVRLKKEDGTVLSVPIAKLSTADRTFLQENQP,0.144
